B1: NRC3_random_hg19_278_o1 (dsDNA)
DNA 1: GCGCTACTTGGGAGGCTGAGATGGTAGAATCACTTGGCGATTGACAGCGTAGAATGAAGG
DNA 2: CCTTCATTCTACGCTGTCAATCGCCAAGTGATTCTACCATCTCAGCCTCCCAAGTAGCGC
B2: NRC3_random_hg19_396_o1 (dsDNA)
DNA 1: GCTTGTTGTGGTTGATGTTGTTCACTCTCAGTCTCCGCGATTGACAGCGTAGAATGAAGG
DNA 2: CCTTCATTCTACGCTGTCAATCGCGGAGACTGAGAGTGAACAACATCAACCACAACAAGC
B3: NRC3_wobSeed46_DR1_C6T_o1 (dsDNA)
DNA 1: GCTTATCAAGGTGAAAGGTCGTTGATGCACGCCTTGGCGATTGACAGCGTAGAATGAAGG
DNA 2: CCTTCATTCTACGCTGTCAATCGCCAAGGCGTGCATCAACGACCTTTCACCTTGATAAGC
B4: NRC3_wobSeed46_DR1_C6A_o1 (dsDNA)
DNA 1: B3 DNA 1 with T6A
DNA 2: B3 DNA 2 with A55T
B5: NRC3_random_hg19_139_o1 (dsDNA)
DNA 1: GCAGGATCGCTTGAGTCCAGAGTTTGAGACCAGCCTGCGATTGACAGCGTAGAATGAAGG
DNA 2: CCTTCATTCTACGCTGTCAATCGCAGGCTGGTCTCAAACTCTGGACTCAAGCGATCCTGC
B6: NRC3_wobSeed69_DR2_C6A_o1 (dsDNA)
DNA 1: GCAGTAAAAGTTCACTAGGTAACGTAAGATTCAGCTGCGATTGACAGCGTAGAATGAAGG
DNA 2: CCTTCATTCTACGCTGTCAATCGCAGCTGAATCTTACGTTACCTAGTGAACTTTTACTGC
B7: NRC3_wobSeed69_DR2_T11G_o1 (dsDNA)
DNA 1: B6 DNA 1 with A6C, T11G
DNA 2: B6 DNA 2 with A50C, T55G
B8: NRC3_random_hg19_189_o1 (dsDNA)
DNA 1: GCATCTGCCTTGCTCTTTCTACCTTTCAGTGTCTTTGCGATTGACAGCGTAGAATGAAGG
DNA 2: CCTTCATTCTACGCTGTCAATCGCAAAGACACTGAAAGGTAGAAAGAGCAAGGCAGATGC
B9: NRC3_random_hg19_479_o1 (dsDNA)
DNA 1: GCAAGTAAACAGCCCTCTAGCTTGGGTGGAAATGTGGCGATTGACAGCGTAGAATGAAGG
DNA 2: CCTTCATTCTACGCTGTCAATCGCCACATTTCCACCCAAGCTAGAGGGCTGTTTACTTGC
B10: NRC3_random_hg19_404_o1 (dsDNA)
DNA 1: GCACTTCGTGATCTGCCTGCCTTAGCCTCCCAAAGTGCGATTGACAGCGTAGAATGAAGG
DNA 2: CCTTCATTCTACGCTGTCAATCGCACTTTGGGAGGCTAAGGCAGGCAGATCACGAAGTGC
B11: NRC3_random_hg19_399_o1 (dsDNA)
DNA 1: GCATGAGATTTCACTGTGTTAGCCAGGATGGTCTCCGCGATTGACAGCGTAGAATGAAGG
DNA 2: CCTTCATTCTACGCTGTCAATCGCGGAGACCATCCTGGCTAACACAGTGAAATCTCATGC
B12: NRC3_wobSeed5_DR0_A14T_o1 (dsDNA)
DNA 1: GCCCTTACGGGTCTAGGTTATAGCACGGGTGGTACGGCGATTGACAGCGTAGAATGAAGG
DNA 2: CCTTCATTCTACGCTGTCAATCGCCGTACCACCCGTGCTATAACCTAGACCCGTAAGGGC
B13: NRC3_random_hg19_197_o1 (dsDNA)
DNA 1: GCGCAACCTCTGCCTCTCAGGCTCAAGTGACCTTCCGCGATTGACAGCGTAGAATGAAGG
DNA 2: CCTTCATTCTACGCTGTCAATCGCGGAAGGTCACTTGAGCCTGAGAGGCAGAGGTTGCGC
B14: NRC3_random_hg19_123_o1 (dsDNA)
DNA 1: GCGTGGAGAAAGTTCTGAGACTGAAGATGACTTTCCGCGATTGACAGCGTAGAATGAAGG
DNA 2: CCTTCATTCTACGCTGTCAATCGCGGAAAGTCATCTTCAGTCTCAGAACTTTCTCCACGC
B15: NRC3_random_hg19_207_o1 (dsDNA)
DNA 1: GCGCAAAGGCTGCGGTGCAATCCTGCATTCTTGTTCGCGATTGACAGCGTAGAATGAAGG
DNA 2: CCTTCATTCTACGCTGTCAATCGCGAACAAGAATGCAGGATTGCACCGCAGCCTTTGCGC
B16: NRC3_wobSeed49_DR2_A17G_o1 (dsDNA)
DNA 1: GCCAAACTAGGTCAAGGGGTCAAAGTCCGCTTCCCGGCGATTGACAGCGTAGAATGAAGG
DNA 2: CCTTCATTCTACGCTGTCAATCGCCGGGAAGCGGACTTTGACCCCTTGACCTAGTTTGGC
B17: NRC3_wobSeed47_DR1_G20C_o1 (dsDNA)
DNA 1: GCGGAACGAGGGCAAAGTTCATAGCATCTGTCGACGGCGATTGACAGCGTAGAATGAAGG
DNA 2: CCTTCATTCTACGCTGTCAATCGCCGTCGACAGATGCTATGAACTTTGCCCTCGTTCCGC
B18: NRC3_wobSeed47_DR1_G12T_o1 (dsDNA)
DNA 1: B17 DNA 1 with G12T, C20G
DNA 2: B17 DNA 2 with G41C, C49A
B19: NRC3_random_hg19_293_o1 (dsDNA)
DNA 1: GCGGAGAGGTCTTAGGATGCATTGGAGGCACAGTGTGCGATTGACAGCGTAGAATGAAGG
DNA 2: CCTTCATTCTACGCTGTCAATCGCACACTGTGCCTCCAATGCATCCTAAGACCTCTCCGC

Where a chain is given by its changes, count along the chain named.

Chain of RARg:RXRa (P13631 whole entry, chain 1 of 2): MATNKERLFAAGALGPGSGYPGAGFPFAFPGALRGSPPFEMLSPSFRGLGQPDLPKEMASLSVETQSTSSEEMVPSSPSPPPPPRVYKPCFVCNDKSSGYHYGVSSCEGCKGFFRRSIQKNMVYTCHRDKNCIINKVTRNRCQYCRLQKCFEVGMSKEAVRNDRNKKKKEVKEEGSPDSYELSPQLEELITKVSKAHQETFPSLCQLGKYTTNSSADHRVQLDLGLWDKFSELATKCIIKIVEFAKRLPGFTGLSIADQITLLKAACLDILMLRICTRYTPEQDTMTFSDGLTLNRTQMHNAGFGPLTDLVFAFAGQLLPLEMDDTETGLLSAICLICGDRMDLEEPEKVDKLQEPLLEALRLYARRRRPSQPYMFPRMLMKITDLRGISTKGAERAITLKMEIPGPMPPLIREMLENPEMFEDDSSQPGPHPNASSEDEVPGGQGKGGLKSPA
Chain of RARg:RXRa (P19793 whole entry, chain 2 of 2): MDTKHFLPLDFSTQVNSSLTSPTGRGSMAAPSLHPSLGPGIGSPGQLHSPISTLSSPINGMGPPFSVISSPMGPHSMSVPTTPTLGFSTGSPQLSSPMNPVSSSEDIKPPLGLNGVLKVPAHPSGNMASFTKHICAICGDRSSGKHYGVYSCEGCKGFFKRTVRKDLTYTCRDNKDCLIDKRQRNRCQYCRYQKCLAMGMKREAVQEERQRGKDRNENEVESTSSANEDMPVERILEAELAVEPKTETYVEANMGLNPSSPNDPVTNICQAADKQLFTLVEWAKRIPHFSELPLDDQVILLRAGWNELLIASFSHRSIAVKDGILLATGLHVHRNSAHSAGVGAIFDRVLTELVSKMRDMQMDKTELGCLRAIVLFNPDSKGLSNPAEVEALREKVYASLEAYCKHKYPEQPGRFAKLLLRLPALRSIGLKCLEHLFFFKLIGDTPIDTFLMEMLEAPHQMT
Chain of RXRa (P19793 whole entry): as the sequence (P19793 whole entry, chain 2 of 2) above
Chain of RARb:RXRa (P10826 whole entry, chain 1 of 2): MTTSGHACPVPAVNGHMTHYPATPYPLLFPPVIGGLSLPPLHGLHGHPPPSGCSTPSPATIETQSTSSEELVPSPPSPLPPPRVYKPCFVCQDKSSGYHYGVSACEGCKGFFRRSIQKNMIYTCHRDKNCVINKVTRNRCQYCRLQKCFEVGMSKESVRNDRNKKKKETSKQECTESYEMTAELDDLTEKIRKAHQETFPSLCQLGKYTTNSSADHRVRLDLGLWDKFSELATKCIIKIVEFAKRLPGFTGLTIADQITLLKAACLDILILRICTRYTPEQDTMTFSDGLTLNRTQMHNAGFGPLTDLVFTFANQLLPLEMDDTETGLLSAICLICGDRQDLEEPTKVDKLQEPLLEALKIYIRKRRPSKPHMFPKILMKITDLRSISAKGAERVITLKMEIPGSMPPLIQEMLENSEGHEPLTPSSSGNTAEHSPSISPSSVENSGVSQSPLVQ
Chain of RARb:RXRa (P19793 whole entry, chain 2 of 2): as the sequence (P19793 whole entry, chain 2 of 2) above
Chain of PPARa:RXRa (Q07869 whole entry, chain 1 of 2): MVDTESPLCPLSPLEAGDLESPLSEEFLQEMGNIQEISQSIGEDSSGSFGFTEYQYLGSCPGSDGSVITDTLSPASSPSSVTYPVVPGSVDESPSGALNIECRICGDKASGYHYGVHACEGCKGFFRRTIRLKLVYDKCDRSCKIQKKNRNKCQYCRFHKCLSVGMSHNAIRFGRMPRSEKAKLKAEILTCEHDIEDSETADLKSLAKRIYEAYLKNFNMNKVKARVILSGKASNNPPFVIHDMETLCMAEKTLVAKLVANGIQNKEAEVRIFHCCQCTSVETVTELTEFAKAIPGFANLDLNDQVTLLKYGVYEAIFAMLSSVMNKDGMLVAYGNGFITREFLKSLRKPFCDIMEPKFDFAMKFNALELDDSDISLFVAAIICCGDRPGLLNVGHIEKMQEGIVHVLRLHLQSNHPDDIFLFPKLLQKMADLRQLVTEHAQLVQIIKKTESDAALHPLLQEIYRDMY
Chain of PPARa:RXRa (P19793 whole entry, chain 2 of 2): as the sequence (P19793 whole entry, chain 2 of 2) above

In one data set the target is PPARg:RXRa (Homo sapiens, UniProt P37231;P19793 full;full). The experiment in a line: no ligand; PBM; 180 nM : 90 nM RXRa; PBS pH 7.4, 2% milk, 0.02% Triton X-100, 1 mM DTT, BSA, 0.4 mg/ml salmon testes DNA. Particulars: tags: His kept;His cleaved; copies: 1;1; label: surface-attached array probe.
Chain of PPARg:RXRa (P37231 29-505, chain 1 of 2): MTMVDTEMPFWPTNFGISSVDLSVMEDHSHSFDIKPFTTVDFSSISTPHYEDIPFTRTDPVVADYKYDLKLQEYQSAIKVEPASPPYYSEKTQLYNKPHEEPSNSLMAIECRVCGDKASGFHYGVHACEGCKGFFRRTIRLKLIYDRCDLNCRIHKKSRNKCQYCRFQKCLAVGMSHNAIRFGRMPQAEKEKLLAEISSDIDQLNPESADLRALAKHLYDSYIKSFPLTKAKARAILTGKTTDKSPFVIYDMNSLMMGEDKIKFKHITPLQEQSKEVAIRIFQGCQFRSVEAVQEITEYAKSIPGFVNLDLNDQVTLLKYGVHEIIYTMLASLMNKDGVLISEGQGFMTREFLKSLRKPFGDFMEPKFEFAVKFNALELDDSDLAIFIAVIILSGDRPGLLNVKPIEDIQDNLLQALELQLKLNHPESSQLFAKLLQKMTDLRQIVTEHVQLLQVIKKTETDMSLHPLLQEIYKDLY
Chain of PPARg:RXRa (P19793 whole entry, chain 2 of 2): as the sequence (P19793 whole entry, chain 2 of 2) above
Take B1: the binding signal was -0.02 PBM z-score against 500 random probes.

Take B2: the binding signal was -0.98 PBM z-score against 500 random probes.

As for B3, the binding signal was 10.9 PBM z-score against 500 random probes.

Take B4: the binding signal was 10.4 PBM z-score against 500 random probes.

As for B5, the binding signal was -0.51 PBM z-score against 500 random probes.

On to B6, for which the binding signal was 5.13 PBM z-score against 500 random probes.

Take B7: the binding signal is 10.2 PBM z-score against 500 random probes.

For B8, the binding signal was -1.57 PBM z-score against 500 random probes.

For B9, the binding signal is -0.63 PBM z-score against 500 random probes.

For the molecule B10, the binding signal was -1.16 PBM z-score against 500 random probes.

With B11, the binding signal is 0.22 PBM z-score against 500 random probes.

For B12, the binding signal was 0.3 PBM z-score against 500 random probes.

As to B13, the binding signal was -0.35 PBM z-score against 500 random probes.

For the molecule B14, the binding signal was 0.25 PBM z-score against 500 random probes.

As for B15, the binding signal is -0.83 PBM z-score against 500 random probes.

For the molecule B16, the binding signal is 10.8 PBM z-score against 500 random probes.

In the case of B17, the binding signal is 10.2 PBM z-score against 500 random probes.

Take B18: the binding signal is 10.5 PBM z-score against 500 random probes.

On to B19, for which the binding signal is 0.47 PBM z-score against 500 random probes.

Another data set addresses RXRa (Homo sapiens, UniProt P19793). Nature of the data set: no ligand; PBM; 180 nM; PBS pH 7.4, 2% milk, 0.02% Triton X-100, 1 mM DTT, BSA, 0.4 mg/ml salmon testes DNA. Particulars: tags: His cleaved; chain copies: 2; label: surface-attached array probe.
B1: the binding signal is -0.89 PBM z-score against 500 random probes.

As to B5, the binding signal was -0.68 PBM z-score against 500 random probes.

Turning to B7, the binding signal was 7.84 PBM z-score against 500 random probes.

On to B8, for which the binding signal was -0.72 PBM z-score against 500 random probes.

In the case of B11, the binding signal was -0.2 PBM z-score against 500 random probes.

In the case of B12, the binding signal is 0.15 PBM z-score against 500 random probes.

In the case of B18, the binding signal was 8.54 PBM z-score against 500 random probes.

The target of a further data set is VDR:RXRa (Homo sapiens, UniProt P11473;P19793 full;full). Nature of the data set: no ligand; PBM; 270 nM : 90 nM RXRa; PBS pH 7.4, 2% milk, 0.02% Triton X-100, 1 mM DTT, BSA, 0.4 mg/ml salmon testes DNA. Particulars: tags: His kept;His cleaved; copies: 1;1; label: surface-attached array probe. Summed up: (§1)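 Binding z-scores were set against random background probes. The data came from custom Agilent 4×180K protein-binding microarrays carrying double-stranded probes with 34-nt variable regions, incubated 1 h with ligand-free nuclear receptor dimers. Partner-specific antibodies detected binding, and scanned fluorescence was regression-normalized.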
Chain of VDR:RXRa (P11473 whole entry, chain 1 of 2): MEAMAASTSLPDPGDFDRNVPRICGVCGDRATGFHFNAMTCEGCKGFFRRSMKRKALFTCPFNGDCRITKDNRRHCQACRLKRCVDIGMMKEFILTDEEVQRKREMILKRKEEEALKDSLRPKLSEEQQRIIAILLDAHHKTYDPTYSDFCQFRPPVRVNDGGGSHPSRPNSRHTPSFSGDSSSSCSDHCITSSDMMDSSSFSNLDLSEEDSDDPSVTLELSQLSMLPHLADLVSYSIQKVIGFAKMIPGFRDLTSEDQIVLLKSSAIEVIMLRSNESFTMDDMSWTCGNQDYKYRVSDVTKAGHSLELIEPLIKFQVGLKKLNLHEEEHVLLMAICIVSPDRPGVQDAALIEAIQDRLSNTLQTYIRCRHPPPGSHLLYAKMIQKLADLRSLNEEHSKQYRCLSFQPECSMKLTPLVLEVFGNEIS
Chain of VDR:RXRa (P19793 whole entry, chain 2 of 2): as the sequence (P19793 whole entry, chain 2 of 2) above
On to B4, for which the binding signal was 3.31 PBM z-score against 500 random probes.

For B6, the binding signal is 3.55 PBM z-score against 500 random probes.

Turning to B15, the binding signal is -0.78 PBM z-score against 500 random probes.

Turning to B16, the binding signal was 6.63 PBM z-score against 500 random probes.

Take B19: the binding signal was 0.06 PBM z-score against 500 random probes.

The target of the next data set is RARb:RXRa (Homo sapiens, UniProt P10826;P19793 full;full). Described as above. The conditions noted are these: tags: His kept;His cleaved; copies: 1;1; label: surface-attached array probe. Summed up:
as §1
With B2, the binding signal is 0.5 PBM z-score against 500 random probes.

B3: the binding signal was 3.04 PBM z-score against 500 random probes.

With B7, the binding signal was 5.88 PBM z-score against 500 random probes.

Take B10: the binding signal was -0.25 PBM z-score against 500 random probes.

For the molecule B13, the binding signal was 0.45 PBM z-score against 500 random probes.

For the next data set, the target named is LXRb:RXRa (Homo sapiens, UniProt P55055;P19793 full;full). The data set is described as above. Particulars: tags: His kept;His cleaved; copies: 1;1; label: surface-attached array probe. In short, it runs like this: as §1
Chain of LXRb:RXRa (P55055 whole entry, chain 1 of 2): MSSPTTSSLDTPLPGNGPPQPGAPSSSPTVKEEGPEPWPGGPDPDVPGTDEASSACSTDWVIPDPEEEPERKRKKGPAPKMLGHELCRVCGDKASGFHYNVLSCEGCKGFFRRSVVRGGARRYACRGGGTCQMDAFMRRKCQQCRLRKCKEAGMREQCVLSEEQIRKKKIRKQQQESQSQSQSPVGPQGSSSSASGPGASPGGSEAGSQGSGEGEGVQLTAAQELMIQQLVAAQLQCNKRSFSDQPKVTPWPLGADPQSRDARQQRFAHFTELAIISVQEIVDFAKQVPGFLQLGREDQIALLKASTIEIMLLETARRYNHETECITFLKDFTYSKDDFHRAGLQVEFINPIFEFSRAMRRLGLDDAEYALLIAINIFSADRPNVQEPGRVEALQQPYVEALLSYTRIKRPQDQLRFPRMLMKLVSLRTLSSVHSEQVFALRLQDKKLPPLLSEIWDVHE
Chain of LXRb:RXRa (P19793 whole entry, chain 2 of 2): as the sequence (P19793 whole entry, chain 2 of 2) above
As to B9, the binding signal was -0.48 PBM z-score against 500 random probes.

In the case of B14, the binding signal is 0.02 PBM z-score against 500 random probes.

As to B17, the binding signal was 3.56 PBM z-score against 500 random probes.

The target of the next data set is RARg:RXRa (Homo sapiens, UniProt P13631;P19793 full;full). The description is as above. Particulars: tags: His kept;His cleaved; copies: 1;1; label: surface-attached array probe. In short, it runs like this:
as §1
On to B7, for which the binding signal is 7.59 PBM z-score against 500 random probes.

For the molecule B12, the binding signal is 0.05 PBM z-score against 500 random probes.

As for B13, the binding signal is 0.42 PBM z-score against 500 random probes.

For the next data set, the target named is PPARa:RXRa (Homo sapiens, UniProt Q07869;P19793 full;full). The data set is described as above. Particulars: tags: GST kept;His cleaved; copies: 1;1; label: surface-attached array probe. Summed up:
as §1
As for B5, the binding signal is -1.12 PBM z-score against 500 random probes.

Turning to B18, the binding signal was 6.61 PBM z-score against 500 random probes.

The target in another data set is FXR:RXRa (Homo sapiens, UniProt Q96RI1;P19793 full;full). The description is as above. Particulars: tags: His kept;His cleaved; copies: 1;1; label: surface-attached array probe. In short, it runs like this: as §1
Chain of FXR:RXRa (Q96RI1 whole entry, chain 1 of 2): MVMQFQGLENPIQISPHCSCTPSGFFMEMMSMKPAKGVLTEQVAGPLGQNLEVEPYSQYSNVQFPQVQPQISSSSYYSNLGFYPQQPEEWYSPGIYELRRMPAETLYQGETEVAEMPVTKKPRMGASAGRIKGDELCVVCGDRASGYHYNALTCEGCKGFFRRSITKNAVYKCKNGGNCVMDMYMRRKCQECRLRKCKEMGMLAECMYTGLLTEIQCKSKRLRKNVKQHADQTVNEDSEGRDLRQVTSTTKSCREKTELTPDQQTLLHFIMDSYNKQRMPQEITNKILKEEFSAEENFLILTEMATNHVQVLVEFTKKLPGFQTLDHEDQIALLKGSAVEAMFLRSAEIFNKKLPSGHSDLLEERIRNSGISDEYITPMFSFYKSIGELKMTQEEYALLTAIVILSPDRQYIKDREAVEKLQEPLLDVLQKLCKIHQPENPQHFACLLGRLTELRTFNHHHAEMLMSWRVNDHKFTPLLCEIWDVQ
Chain of FXR:RXRa (P19793 whole entry, chain 2 of 2): as the sequence (P19793 whole entry, chain 2 of 2) above
As to B15, the binding signal was -0.69 PBM z-score against 500 random probes.

Turning to B18, the binding signal was 8.06 PBM z-score against 500 random probes.
